From publication PMC6426840

Molecular target: recombinant human matrix metalloproteinase-2 (rh-proMMP2 activated with APMA) (human) (UniProt P08253)
Sequence of UniProt P08253 (P08253 30-660): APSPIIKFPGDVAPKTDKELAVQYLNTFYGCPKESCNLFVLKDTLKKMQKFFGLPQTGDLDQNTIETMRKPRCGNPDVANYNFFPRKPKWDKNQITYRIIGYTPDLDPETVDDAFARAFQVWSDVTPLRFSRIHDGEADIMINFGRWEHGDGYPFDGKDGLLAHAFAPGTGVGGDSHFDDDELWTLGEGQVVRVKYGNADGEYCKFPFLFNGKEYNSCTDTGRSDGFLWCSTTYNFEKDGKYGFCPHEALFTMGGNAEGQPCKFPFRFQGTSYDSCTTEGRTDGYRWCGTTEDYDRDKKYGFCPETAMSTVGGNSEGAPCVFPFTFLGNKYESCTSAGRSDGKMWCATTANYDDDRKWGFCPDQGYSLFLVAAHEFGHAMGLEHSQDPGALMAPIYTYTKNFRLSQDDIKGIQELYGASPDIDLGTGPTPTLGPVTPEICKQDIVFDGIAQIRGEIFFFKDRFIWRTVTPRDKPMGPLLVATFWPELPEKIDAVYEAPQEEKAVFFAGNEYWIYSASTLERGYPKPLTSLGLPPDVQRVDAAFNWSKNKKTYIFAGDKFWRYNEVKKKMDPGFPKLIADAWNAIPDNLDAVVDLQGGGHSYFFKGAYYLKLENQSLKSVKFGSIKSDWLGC

MMP2 enzyme activity left (fluorogenic peptide MCA-Pro-Leu-Ala-Nva-Dpa-Ala-Arg-NH2, endpoint after 5 h) with 100 ng/mL rhMMP2 and 40 ng/mL rhTIMP3, molecular ratio about 1:1, without GAG: 15% | TIMP3-induced inhibition of MMP2 enzyme activity when hyaluronan (HA, 200 µg/mL) is added to MMP2 and TIMP3 pre-incubated for 30 min at 25 °C; change against the control without GAG: 5%
B1: recombinant human tissue inhibitor of metalloproteinases 3 (natural protein)
chain: CTCSPSHPQDAFCNSDIVIRAKVVGKKLVKEGPFGTLVYTIKQMKMYRGFTKMPHVQYIHTEASESLCGLKLEVNKYQYLLTGRVYDGKMYTGLCNFVERWDQLTLSQRKGLNYRYHLGCNCKIKSCYYLPCFVTSKNECLWTDMLSNFGYPGYQSKHYACIRQKGGYCSWYRGWAPPDKSIINATDP
